Biological target: MERS-CoV S2 stem helix peptide (MERS-CoV)

S2P6 (antibody), sequence (VH): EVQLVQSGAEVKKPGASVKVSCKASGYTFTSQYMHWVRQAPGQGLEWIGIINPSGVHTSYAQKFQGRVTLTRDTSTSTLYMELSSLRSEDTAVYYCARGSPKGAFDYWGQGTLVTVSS
S2P6 (antibody), sequence (VL): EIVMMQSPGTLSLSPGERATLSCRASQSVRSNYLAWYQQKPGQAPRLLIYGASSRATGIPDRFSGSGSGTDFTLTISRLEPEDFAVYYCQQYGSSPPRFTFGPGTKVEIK

Substance: S2P6 (antibody)
- IC50 of neutralisation of MERS-CoV pseudovirus (HeLa-hDPP4 cells): 8.37 µg/mL

Source: publication PMC13480645
